Data taken from patent US20180305427A1 (ACCELERON PHARMA, published 2018).

T1: myostatin (R&D Systems) (UniProt O14793 267-375)
T1 sequence (looked up): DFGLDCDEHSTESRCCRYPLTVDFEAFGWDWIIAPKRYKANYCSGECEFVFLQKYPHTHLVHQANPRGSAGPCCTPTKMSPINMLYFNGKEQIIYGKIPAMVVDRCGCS

B1: Single-chain WFIKKN2-His6 (other)
chain: LPPIRYSHAGICPNDMNPNLWVDAQSTCRRECETDQECETYEKCCPNVCGTKSCVAARYMDVKGKKGPVGMPKEATCDHFMCLQQGSECDIWDGQPVCKCKDRCEKEPSFTCASDGLTYYNRCYMDAEACSKGITLAVVTCRYHFTWPNTSPPPPETTMHPTTASPETPELDMAAPALLNNPVHQSVTMGETVSFLCDVVGRPRPEITWEKQLEDRENVVMRPNHVRGNVVVTNIAQLVIYNAQLQDAGIYTCTARNVAGVLRADFPLSVVRGHQAAATSESSPNGTAFPAAECLKPPDSEDCGEEQTRWHFDAQANNCLTFTFGHCHRNLNHFETYEACMLACMSGPLAACSLPALQGPCKAYAPRWAYNSQTGQCQSFVYGGCEGNGNNFESREACEESCPFPRGNQRCRACKPRQKLVTSFCRSDFVILGRVSELTEEPDSGRALVTVDEVLKDEKMGLKFLGQEPLEVTLLHVDWACPCPNVTVSEMPLIIMGEVDGGMAMLRPDSFVGASSARRVRKLREVMHKKTCDVLKEFLGLHHHHHHH

Legend:
myostatin (R&D Systems) [1] = molecular target: myostatin (R&D Systems) (UniProt O14793); assay: cell-based or functional assay
myostatin (R&D Systems) [2] = molecular target: T1, myostatin (R&D Systems); assay: cell-based or functional assay

Molecule | IC50 (nM), inhibition of myostatin signaling, pGL3(CAGA)12 reporter gene assay in A204 cells (myostatin (R&D Systems) [1]) [nM] | IC50 (nM), inhibition of myostatin signaling, pGL3(CAGA)12 reporter gene assay in A204 cells (myostatin (R&D Systems) [2]) [nM]
Single-arm WFIKKN2-G1Fc (from UniProt P0DOX5 209-449) (Fc fusion) | 2.9 | 
Dual-arm WFIKKN2-G1Fc (from UniProt Q8TEU8 35-576) (Fc fusion) | > 100 | 
B1 |  | 1.4
